Results as given in PMC3979393 (2014).

Experiments:
[1] = cell-surface biotinylation, avidin pulldown, anti-Myc blot; details: glycan lost; control: wild-type DDR1b, no collagen
[2] = reversible biotinylation endocytosis assay, COS1; details: glycan lost; control: wild-type DDR1b
[3] = anti-Myc blot of surface, intracellular and lysate fractions; details: glycan lost; control: wild-type DDR1b
[4] = BS3 cross-linking of lysates, IP, anti-DDR1 blot; details: glycan lost; control: wild-type DDR1b, no collagen
Rat tail collagen type I = Rat tail collagen type I (rat, UniProt P02454 152-1207; P02466 86-1125); assay: ELISA
Sequence of Rat tail collagen type I (P02454 152-1207, chain 1 of 2): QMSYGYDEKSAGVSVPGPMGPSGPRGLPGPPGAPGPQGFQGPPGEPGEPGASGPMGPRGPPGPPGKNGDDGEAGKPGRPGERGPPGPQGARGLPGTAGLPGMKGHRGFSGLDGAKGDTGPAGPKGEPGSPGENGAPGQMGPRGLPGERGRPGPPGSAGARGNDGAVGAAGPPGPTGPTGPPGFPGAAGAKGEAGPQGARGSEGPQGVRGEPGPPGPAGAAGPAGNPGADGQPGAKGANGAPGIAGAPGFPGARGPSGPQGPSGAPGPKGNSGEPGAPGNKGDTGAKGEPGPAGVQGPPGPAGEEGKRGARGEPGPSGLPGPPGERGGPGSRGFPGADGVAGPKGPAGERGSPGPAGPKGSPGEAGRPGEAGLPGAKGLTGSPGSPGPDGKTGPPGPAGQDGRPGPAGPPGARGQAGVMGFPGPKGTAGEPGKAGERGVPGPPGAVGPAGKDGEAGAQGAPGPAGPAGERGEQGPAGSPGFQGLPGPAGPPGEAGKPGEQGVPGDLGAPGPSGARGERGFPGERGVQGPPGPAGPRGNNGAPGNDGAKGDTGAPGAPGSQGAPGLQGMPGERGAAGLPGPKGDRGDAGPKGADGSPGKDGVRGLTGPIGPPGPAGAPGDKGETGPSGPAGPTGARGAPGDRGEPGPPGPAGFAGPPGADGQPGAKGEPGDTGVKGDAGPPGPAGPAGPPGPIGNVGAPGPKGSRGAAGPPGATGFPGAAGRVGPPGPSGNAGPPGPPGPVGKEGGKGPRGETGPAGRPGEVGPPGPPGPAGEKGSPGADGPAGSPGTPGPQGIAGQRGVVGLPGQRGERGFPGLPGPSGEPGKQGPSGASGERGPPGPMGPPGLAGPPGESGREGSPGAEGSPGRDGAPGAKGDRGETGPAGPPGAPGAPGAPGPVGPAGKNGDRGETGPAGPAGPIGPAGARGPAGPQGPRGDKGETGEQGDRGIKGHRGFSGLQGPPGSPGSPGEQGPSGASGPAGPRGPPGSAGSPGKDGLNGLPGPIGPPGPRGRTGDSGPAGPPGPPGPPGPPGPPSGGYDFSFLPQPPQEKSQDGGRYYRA
Sequence of Rat tail collagen type I (P02466 86-1125, chain 2 of 2): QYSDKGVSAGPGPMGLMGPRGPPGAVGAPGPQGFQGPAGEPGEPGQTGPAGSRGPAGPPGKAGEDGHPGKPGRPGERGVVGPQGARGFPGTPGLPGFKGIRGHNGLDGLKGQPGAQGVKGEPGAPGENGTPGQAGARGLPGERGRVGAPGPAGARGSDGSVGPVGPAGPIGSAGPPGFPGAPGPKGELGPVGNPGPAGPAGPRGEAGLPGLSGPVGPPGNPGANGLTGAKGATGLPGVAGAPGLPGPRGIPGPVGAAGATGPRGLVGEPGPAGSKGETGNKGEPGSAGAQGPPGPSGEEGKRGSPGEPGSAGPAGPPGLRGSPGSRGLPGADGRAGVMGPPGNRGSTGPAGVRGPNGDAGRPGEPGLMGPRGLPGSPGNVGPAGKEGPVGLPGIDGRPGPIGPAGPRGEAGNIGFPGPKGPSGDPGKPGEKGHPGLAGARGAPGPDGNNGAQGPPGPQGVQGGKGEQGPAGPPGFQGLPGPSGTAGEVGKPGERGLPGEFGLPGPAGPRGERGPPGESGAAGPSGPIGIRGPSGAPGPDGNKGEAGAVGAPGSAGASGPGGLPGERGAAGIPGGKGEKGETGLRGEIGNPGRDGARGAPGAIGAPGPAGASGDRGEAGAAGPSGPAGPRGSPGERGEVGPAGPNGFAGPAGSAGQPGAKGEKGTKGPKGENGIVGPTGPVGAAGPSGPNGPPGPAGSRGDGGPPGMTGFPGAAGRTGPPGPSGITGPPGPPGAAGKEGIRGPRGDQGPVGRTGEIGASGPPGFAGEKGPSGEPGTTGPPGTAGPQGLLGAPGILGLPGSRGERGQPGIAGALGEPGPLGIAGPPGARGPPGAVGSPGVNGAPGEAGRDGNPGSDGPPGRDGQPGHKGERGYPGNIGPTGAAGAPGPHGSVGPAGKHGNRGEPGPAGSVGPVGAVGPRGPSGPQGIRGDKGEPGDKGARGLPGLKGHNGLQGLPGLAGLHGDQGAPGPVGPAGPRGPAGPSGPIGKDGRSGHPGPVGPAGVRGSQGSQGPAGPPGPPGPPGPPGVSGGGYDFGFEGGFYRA

Row | Binder | localisation_or_trafficking [1] | localisation_or_trafficking [2] | expression_or_secretion [3] | oligomerisation [4] | Kd (Rat tail collagen type I)
1 | Discoidin domain receptor 1 (DDR1b): N211Q (protein) parent chain: MGPEALSSLLLLLLVASGDADMKGHFDPAKCRYALGMQDRTIPDSDISASSSWSDSTAARHSRLESSDGDGAWCPAGSVFPKEEEYLQVDLQRLHLVALVGTQGRHAGGLGKEFSRSYRLRYSRDGRRWMGWKDRWGQEVISGNEDPEGVVLKDLGPPMVARLVRFYPRADRVMSVCLRVELYGCLWRDGLLSYTAPVGQTMYLSEAVYLNDSTYDGHTVGGLQYGGLGQLADGVVGLDDFRKSQELRVWPGYDYVGWSNHSFSSGYVEMEFEFDRLRAFQAMQVHCNNMHTLGARLPGGVECRFRRGPAMAWEGEPMRHNLGGNLGDPRARAVSVPLGGRVARFLQCRFLFAGPWLLFSEISFISDVVNNSSPALGGTFPPAPWWPPGPPPTNFSSLELEPRGQQPVAKAEGSPTAILIGCLVAIILLLLLIIALMLWRLHWRRLLSKAERRVLEEELTVHLSVPGDTILINNRPGPREPPPYQEPRPRGNPPHSAPCVPNGSALLLSNPAYRLLLATYARPPRGPGPPTPAWAKPTNTQAYSGDYMEPEKPGAPLLPPPPQNSVPHYAEADIVTLQGVTGGNTYAVPALPPGAVGDGPPRVDFPRSRLRFKEKLGEGQFGEVHLCEVDSPQDLVSLDFPLNVRKGHPLLVAVKILRPDATKNARNDFLKEVKIMSRLKDPNIIRLLGVCVQDDPLCMITDYMENGDLNQFLSAHQLEDKAAEGAPGDGQAAQGPTISYPMLLHVAAQIASGMRYLATLNFVHRDLATRNCLVGENFTIKIADFGMSRNLYAGDYYRVQGRAVLPIRWMAWECILMGKFTTASDVWAFGVTLWEVLMLCRAQPFGQLTDEQVIENAGEFFRDQGRQVYLSRPPACPQGLYELMLRCWSRESEQRPPFSQLHRFLAEDALNTV | no change | decreases | no change | increases | –
2 | DDR1b ectodomain (ECD) harboring an IgG2 Fc fragment at the C-terminal end, N211Q (Fc fusion) DADMKGHFDPAKCRYALGMQDRTIPDSDISASSSWSDSTAARHSRLESSDGDGAWCPAGSVFPKEEEYLQVDLQRLHLVALVGTQGRHAGGLGKEFSRSYRLRYSRDGRRWMGWKDRWGQEVISGNEDPEGVVLKDLGPPMVARLVRFYPRADRVMSVCLRVELYGCLWRDGLLSYTAPVGQTMYLSEAVYLQDSTYDGHTVGGLQYGGLGQLADGVVGLDDFRKSQELRVWPGYDYVGWSNHSFSSGYVEMEFEFDRLRAFQAMQVHCNNMHTLGARLPGGVECRFRRGPAMAWEGEPMRHNLGGNLGDPRARAVSVPLGGRVARFLQCRFLFAGPWLLFSEISFISDVVNNSSPALGGTFPPAPWWPPGPPPTNFSSLELEPRGQQPVAKAEGSPT | – | – | – | – | 4.75 nM
3 | DDR1b ectodomain (ECD) harboring an IgG2 Fc fragment at the C-terminal end, wild type (Fc fusion) DADMKGHFDPAKCRYALGMQDRTIPDSDISASSSWSDSTAARHSRLESSDGDGAWCPAGSVFPKEEEYLQVDLQRLHLVALVGTQGRHAGGLGKEFSRSYRLRYSRDGRRWMGWKDRWGQEVISGNEDPEGVVLKDLGPPMVARLVRFYPRADRVMSVCLRVELYGCLWRDGLLSYTAPVGQTMYLSEAVYLNDSTYDGHTVGGLQYGGLGQLADGVVGLDDFRKSQELRVWPGYDYVGWSNHSFSSGYVEMEFEFDRLRAFQAMQVHCNNMHTLGARLPGGVECRFRRGPAMAWEGEPMRHNLGGNLGDPRARAVSVPLGGRVARFLQCRFLFAGPWLLFSEISFISDVVNNSSPALGGTFPPAPWWPPGPPPTNFSSLELEPRGQQPVAKAEGSPT | – | – | – | – | 3.33 nM
